Test results: patent US20220048967A1 (published 2022)
Where a chain is given by its changes, count along the chain named. Numbered stars: 1 amine (or outer) side, 2 acyl side, 3 side chain; on linkers, the order of the positions; unused ones are H or OH. Square brackets hold non-standard residues; d marks the D form. Side chains are listed from the residue outwards. Ends that are not written are not given here. * marks the point of attachment. C20 diacid = O=C(O)CCCCCCCCCCCCCCCCCCC(=O)*; αMePhe(2-F) = C[C@](N)(Cc1ccccc1F)C(=O)O; γGlu = O=C(O)[C@H](CCC(=O)[*:2])N[*:1]; Desaminotyrosyl = O=C(CCc1ccc(O)cc1)*; αMeF = C[C@](N)(Cc1ccccc1)C(=O)O; cTA = not defined here; AEEA = NCCOCCOCC(=O)O; Aib = CC(C)(N)C(=O)O

T1: human gastric inhibitory peptide receptor (GIPR) (human, UniProt P48546 22-466)
T1 sequence (looked up): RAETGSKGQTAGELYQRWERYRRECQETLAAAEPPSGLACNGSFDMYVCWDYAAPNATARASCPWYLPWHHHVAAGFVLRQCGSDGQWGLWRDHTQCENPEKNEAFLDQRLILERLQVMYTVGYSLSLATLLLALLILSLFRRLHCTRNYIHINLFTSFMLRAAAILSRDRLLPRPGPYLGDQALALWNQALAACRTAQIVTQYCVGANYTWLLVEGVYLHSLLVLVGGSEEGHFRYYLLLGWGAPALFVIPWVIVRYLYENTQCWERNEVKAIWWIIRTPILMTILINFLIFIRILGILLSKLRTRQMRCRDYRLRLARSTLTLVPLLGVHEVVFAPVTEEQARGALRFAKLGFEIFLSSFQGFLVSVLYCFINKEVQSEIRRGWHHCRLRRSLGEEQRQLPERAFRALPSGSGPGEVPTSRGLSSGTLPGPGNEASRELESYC

B1: Example 138 (peptide)
peptide: Y[Aib]EGT[αMeF]TSDYSIXLDKK([AEEA-AEEA-γGlu-C20 diacid])AQ[Aib]SFIEYLIEGGPSSGAPPPS-NH2
modifications: not fully specified (residue 13); printed as Y-Aib-EGT-αMeF-TSDYSI-αMeF-LDKK((2-[2-(2-Amino-ethoxy)-ethoxy]-acetyl)2-(γ-Glu)-CO-(CH2)18-CO2H)AQ-Aib-SFIEYLIEGGPSSGAPPPS-NH2
B2: Example 135 (peptide)
peptide: H[Aib]NGTFTSDYSILLDKK([AEEA-AEEA-γGlu-C20 diacid])AQ[Aib]AFIEYLIEGGPSSGAPPPS-NH2
modifications: N-terminus assumed
SMILES: CC[C@H](C)[C@H](NC(=O)[C@H](CC(C)C)NC(=O)[C@H](Cc1ccc(O)cc1)NC(=O)[C@H](CCC(=O)O)NC(=O)[C@@H](NC(=O)[C@H](Cc1ccccc1)NC(=O)[C@H](C)NC(=O)C(C)(C)NC(=O)[C@H](CCC(N)=O)NC(=O)[C@H](C)NC(=O)[C@H](CCCCNC(=O)COCCOCCNC(=O)COCCOCCNC(=O)CC[C@H](NC(=O)CCCCCCCCCCCCCCCCCCC(=O)O)C(=O)O)NC(=O)[C@H](CCCCN)NC(=O)[C@H](CC(=O)O)NC(=O)[C@H](CC(C)C)NC(=O)[C@H](CC(C)C)NC(=O)[C@@H](NC(=O)[C@H](CO)NC(=O)[C@H](Cc1ccc(O)cc1)NC(=O)[C@H](CC(=O)O)NC(=O)[C@H](CO)NC(=O)[C@@H](NC(=O)[C@H](Cc1ccccc1)NC(=O)[C@@H](NC(=O)CNC(=O)[C@H](CC(N)=O)NC(=O)C(C)(C)NC(=O)[C@@H](N)Cc1c[nH]cn1)[C@@H](C)O)[C@@H](C)O)[C@@H](C)CC)[C@@H](C)CC)C(=O)N[C@@H](CCC(=O)O)C(=O)NCC(=O)NCC(=O)N1CCC[C@H]1C(=O)N[C@@H](CO)C(=O)N[C@@H](CO)C(=O)NCC(=O)N[C@@H](C)C(=O)N1CCC[C@H]1C(=O)N1CCC[C@H]1C(=O)N1CCC[C@H]1C(=O)N[C@@H](CO)C(N)=O
B3: Example 120 (peptide)
peptide: Y[Aib][cTA]GT[αMeF]TSDYSIXLDEK([AEEA-AEEA-γGlu-C20 diacid])AQ[Aib]AFIEYLIEGGPSSGAPPPS-NH2
modifications: not fully specified (residue 13); printed as Y-Aib-cTA-GT-αMeF-TSDYSI-αMeF-LDEK((2-[2-(2-Amino-ethoxy)-ethoxy]-acetyl)2-(γ-Glu)-CO-(CH2)18-CO2H)AQ-Aib-AFIEYLIEGGPSSGAPPPS-NH2
B4: Example 133 (peptide)
peptide: [Desaminotyrosyl][Aib]EGT[αMeF]TSDYSI[Aib]LDEK([AEEA-AEEA-γGlu-C20 diacid])AQ[Aib]AFIEYLIEGGPSSGAPPPS-NH2
SMILES: CC[C@H](C)[C@H](NC(=O)[C@H](CC(C)C)NC(=O)[C@H](Cc1ccc(O)cc1)NC(=O)[C@H](CCC(=O)O)NC(=O)[C@@H](NC(=O)[C@H](Cc1ccccc1)NC(=O)[C@H](C)NC(=O)C(C)(C)NC(=O)[C@H](CCC(N)=O)NC(=O)[C@H](C)NC(=O)[C@H](CCCCNC(=O)COCCOCCNC(=O)COCCOCCNC(=O)CC[C@H](NC(=O)CCCCCCCCCCCCCCCCCCC(=O)O)C(=O)O)NC(=O)[C@H](CCC(=O)O)NC(=O)[C@H](CC(=O)O)NC(=O)[C@H](CC(C)C)NC(=O)C(C)(C)NC(=O)[C@@H](NC(=O)[C@H](CO)NC(=O)[C@H](Cc1ccc(O)cc1)NC(=O)[C@H](CC(=O)O)NC(=O)[C@H](CO)NC(=O)[C@@H](NC(=O)[C@](C)(Cc1ccccc1)NC(=O)[C@@H](NC(=O)CNC(=O)[C@H](CCC(=O)O)NC(=O)C(C)(C)NC(=O)CCc1ccc(O)cc1)[C@@H](C)O)[C@@H](C)O)[C@@H](C)CC)[C@@H](C)CC)C(=O)N[C@@H](CCC(=O)O)C(=O)NCC(=O)NCC(=O)N1CCC[C@H]1C(=O)N[C@@H](CO)C(=O)N[C@@H](CO)C(=O)NCC(=O)N[C@@H](C)C(=O)N1CCC[C@H]1C(=O)N1CCC[C@H]1C(=O)N1CCC[C@H]1C(=O)N[C@@H](CO)C(N)=O
B5: Example 126 (peptide)
peptide: Y[Aib]EGT[αMeF]TSDYSIXLDKK([AEEA-AEEA-γGlu-C20 diacid])AQ[Aib]AFIEYLIEAGPSSGAPPPS-NH2
modifications: not fully specified (residue 13); printed as Y-Aib-EGT-αMeF-TSDYSI-αMeF-LDKK((2-[2-(2-Amino-ethoxy)-ethoxy]-acetyl)2-(γ-Glu)-CO-(CH2)18-CO2H)AQ-Aib-AFIEYLIEAGPSSGAPPPS-NH2
B6: Example 123 (peptide)
peptide: Y[Aib]EGT[αMeF]TSDYSIXLDKK([AEEA-AEEA-γGlu-C20 diacid])AQ[Aib]EFIEYLIEGGPSSG-NH2
modifications: not fully specified (residue 13); printed as Y-Aib-EGT-αMeF-TSDYSI-αMeF-LDKK((2-[2-(2-Amino-ethoxy)-ethoxy]-acetyl)2-(γ-Glu)-CO-(CH2)18-CO2H)AQ-Aib-EFIEYLIEGGPSSG-NH2
B7: Example 134 (peptide)
peptide: [Desaminotyrosyl][Aib]EGT[αMePhe(2-F)]TSDYSIXLDEK([AEEA-AEEA-γGlu-C20 diacid])AQ[Aib]EFIEYLIEGGPSSGAPPPS-NH2
modifications: not fully specified (residue 13); printed as DesTyr-Aib-EGT-αMeF(2F)-TSDYSI-αMeF-LDEK((2-[2-(2-Amino-ethoxy)-ethoxy]-acetyl)2-(γ-Glu)-CO-(CH2)18-CO2H)AQ-Aib-EFIEYLIEGGPSSGAPPPS-NH2
B8: Example 124 (peptide)
peptide: Y[Aib]EGT[αMeF]TSDYSIXLDEK([AEEA-AEEA-γGlu-C20 diacid])AQ[Aib]EFIEYLIEGGPSSG-NH2
modifications: not fully specified (residue 13); printed as Y-Aib-EGT-αMeF-TSDYSI-αMeF-LDEK((2-[2-(2-Amino-ethoxy)-ethoxy]-acetyl)2-(γ-Glu)-CO-(CH2)18-CO2H)AQ-Aib-EFIEYLIEGGPSSG-NH2
B9: Example 127 (peptide)
peptide: YXEGTXTSDISILLDKKAQXAFIEYLIEGGPSSGAPPPS
modifications: Y-Aib-EGT-αMeF-TSDISILLDKK((2-[2-(2-Amino-ethoxy)-ethoxy]-acetyl)2-(γ-Glu)-CO-(CH2)18-CO2H)AQ-Aib-AFIEYLIEGGPSSGAPPPS-NH2
B10: Example 128 (peptide)
peptide: B9 peptide with I10H
modifications: Y-Aib-EGT-αMeF-TSDHSILLDKK((2-[2-(2-Amino-ethoxy)-ethoxy]-acetyl)2-(γ-Glu)-CO-(CH2)18-CO2H)AQ-Aib-AFIEYLIEGGPSSGAPPPS-NH2
B11: Example 131 (peptide)
peptide: B9 peptide with I10X
modifications: Y-Aib-EGT-αMeF-TSD-αMeF-SILLDKK((2-[2-(2-Amino-ethoxy)-ethoxy]-acetyl)2-(γ-Glu)-CO-(CH2)18-CO2H)AQ-Aib-AFIEYLIEGGPSSGAPPPS-NH2
B12: Example 129 (peptide)
peptide: B9 peptide with I10L
modifications: Y-Aib-EGT-αMeF-TSDLSILLDKK((2-[2-(2-Amino-ethoxy)-ethoxy]-acetyl)2-(γ-Glu)-CO-(CH2)18-CO2H)AQ-Aib-AFIEYLIEGGPSSGAPPPS-NH2
B13: Example 132 (peptide)
peptide: B9 peptide with I10X
modifications: Y-Aib-EGT-αMeF-TSD-3Pal-SILLDKK((2-[2-(2-Amino-ethoxy)-ethoxy]-acetyl)2-(γ-Glu)-CO-(CH2)18-CO2H)AQ-Aib-AFIEYLIEGGPSSGAPPPS-NH2
B14: Example 130 (peptide)
peptide: B9 peptide with I10E
modifications: Y-Aib-EGT-αMeF-TSDESILLDKK((2-[2-(2-Amino-ethoxy)-ethoxy]-acetyl)2-(γ-Glu)-CO-(CH2)18-CO2H)AQ-Aib-AFIEYLIEGGPSSGAPPPS-NH2
B15: Example 226 (peptide)
peptide: B9 peptide with I10Y, K16E, A21E, E24X
modifications: Y-Aib-EGT-αMeF(2F)-TSDYSILLDEK((2-[2-(2-Amino-ethoxy)-ethoxy]-acetyl)2-(γ-Glu)-CO-(CH2)18-CO2H)AQ-Aib-EFI-(D-Glu)-YLIEGGPSSGAPPPS-NH2
B16: Example 225 (peptide)
peptide: YXEGTXTSDYSIXLDEKAQXEFIXYLIEGGPSSGAPPPS
modifications: Y-Aib-EGT-αMeF-TSDYSI-Aib-LDEK((2-[2-(2-Amino-ethoxy)-ethoxy]-acetyl)2-(γ-Glu)-CO-(CH2)18-CO2H)AQ-Aib-EFI-(D-Glu)-YLIEGGPSSGAPPPS-NH2
B17: Example 186 (peptide)
peptide: B16 peptide with Y10X
modifications: Y-Aib-EGT-αMeF(2F)-TSD-αMeY-SI-αMeF-LDEK((2-[2-(2-Amino-ethoxy)-ethoxy]-acetyl)2-(γ-Glu)-CO-(CH2)18-CO2H)AQ-Aib-EFI-(D-Glu)-YLIEGGPSSGAPPPS-NH2
B18: Example 328 (peptide)
peptide: FXEGTFTSDYSIXLDKKAQXAFIEYLIEAGPSSGAPPPS
modifications: Aib2, αMeL13, K17 conjugated to (2-[2-(2-Amino-ethoxy)-ethoxy]-acetyl)2-(γ-Glu)-CO-(CH2)16-CO2H, Aib20, C-terminal amide (NH2)

Target: T1, human gastric inhibitory peptide …
Experiment: cell-based or functional assay

Binder | hGIPR cAMP Rel EC50 [nM] | hGIPR cAMP EC50 ratio
B1 | 0.0581 | 
B2 | 0.373 | 0.482
B3 | 0.122 | 1.67
B4 | 0.0879 | 1.89
B5 | 0.0685 | 2.53
B6 | 0.0423 | 4.04
B7 | 0.104 | 1.43
B8 | 0.0762 | 2.18
B9 | 0.158 | 0.917
B10 | 0.0694 | 2.46
B11 | 0.183 | 1.03
B12 | 0.106 | 1.88
B13 | 0.0657 | 2.88
B14 | 1.55 | 0.116
B15 | 0.0461 | 
B16 | 0.101 | 

Target: human GLP-1 receptor (GLP-1R) (human, UniProt P43220 24-463)
Experiment: cell-based or functional assay

Binder | hGLP1R cAMP EC50 ratio | hGLP1R cAMP Rel EC50 [nM]
B2 | 0.509 | 0.131
B3 | 0.319 | 0.201
B4 | 1.52 | 0.0436
B5 | 0.869 | 0.0715
B6 | 1.58 | 0.0344
B7 | 0.942 | 0.0654
B8 | 1.29 | 0.0475
B9 | 0.443 | 0.145
B10 | 0.7 | 0.0924
B11 | 0.425 | 0.156
B12 | 0.543 | 0.121
B13 | 0.255 | 0.26
B14 | 0.182 | 0.368
B17 | 0.572 | 0.0939

Target: human GLP-1 receptor (human, UniProt P43220 24-463)
Experiment: cell-based or functional assay

Binder | hGLP1R GTPgS % Top [%] | hGLP1R GTPgS Rel EC50 [nM]
B18 | 66.3 | 0.481
